Measurements published in publication PMC3894748 (2013).

Molecular target: actin (Homo sapiens, UniProt P60709)
Assay: Ca2+-ATPase activity inhibition

B1: plasma membrane calcium pump (PMCA) (protein)
chain: MTNPSDRVLPANSMAESREGDFGCTVMELRKLMELRSRDALTQINVHYGGVQNLCSRLKTSPVEGLSGNPADLEKRRQVFGHNVIPPKKPKTFLELVWEALQDVTLIILEIAAIISLVLSFYRPAGEENELCGQVATTPEDENEAQAGWIEGAAILFSVIIVVLVTAFNDWSKEKQFRGLQCRIEQEQKFSIIRNGQLIQLPVAEIVVGDIAQVKYGDLLPADGILIQGNDLKIDESSLTGESDHVKKSLDKDPMLLSGTHVMEGSGRMVVTAVGVNSQTGIILTLLGVNEDDEGEKKKKGKKQGVPENRNKAKTQDGVALEIQPLNSQEGIDNEEKDKKAVKVPKKEKSVLQGKLTRLAVQIGKAGLLMSALTVFILILYFVIDNFVINRRPWLPECTPIYIQYFVKFFIIGITVLVVAVPEGLPLAVTISLAYSVKKMMKDNNLVRHLDACETMGNATAICSDKTGTLTMNRMTVVQAYIGGIHYRQIPSPDVFLPKVLDLIVNGISINSAYTSKILPPEKEGGLPRQVGNKTECALLGFVTDLKQDYQAVRNEVPEEKLYKVYTFNSVRKSMSTVIRNPNGGFRMYSKGASEIILRKCNRILDRKGEAVPFKNKDRDDMVRTVIEPMACDGLRTICIAYRDFDDTEPSWDNENEILTELTCIAVVGIEDPVRPEVPDAIAKCKQAGITVRMVTGDNINTARAIATKCGILTPGDDFLCLEGKEFNRLIRNEKGEVEQEKLDKIWPKLRVLARSSPTDKHTLVKGIIDSTVGEHRQVVAVTGDGTNDGPALKKADVGFAMGIAGTDVAKEASDIILTDDNFTSIVKAVMWGRNVYDSISKFLQFQLTVNVVAVIVAFTGACITQDSPLKAVQMLWVNLIMDTFASLALATEPPTESLLKRRPYGRNKPLISRTMMKNILGHAFYQLIVIFILVFAGEKFFDIDSGRKAPLHSPPSQHYTIVFNTFVLMQLFNEINSRKIHGEKNVFSGIYRNIIFCSVVLGTFICQIFIVEFGGKPFSCTSLSLSQWLWCLFIGIGELLWGQFISAIPTRSLKFLKEAGHGTTKEEITKDAEGLDEIDHAEMELRRGQILWFRGLNRIQTQIDVINTFQTGASFKGVLRRQNMGQHLDVKLVPSSSYIKVVKAFHSSLHESIQKPYNQKSIHSFMTHPEFAIEEELPRTPLLDEEEEENPDKASKFGTRVLLLDGEVTPYANTNNNAVDCNQVQLPQSDSSLQSLETSV
Kd: 680 nM
